Consider 15 molecules from patent US20180016327A1 (Chugai, published 2018).

The test concerns the target T1, human C5 (human, UniProt P01031 19-673; P01031 678-1676, Beta and alpha chains are disulfide-linked and the protein is glycosylated.).
T1 construct: Either in-house recombinant C5 or plasma derived C5 (CALBIOCHEM) was used; also called recombinant human C5; plasma derived human C5
The test is described as follows: Biacore, captured antibody, pH 7.4, 37 C.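 Also: biacore binding response of anti-C5 antibody light chain variants captured on chip with human C5 injected, ACES running buffer containing 1.2 mM CaCl₂, parent light chain antibody set to 100.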 Background: SPR reads the build-up and loss of mass on a sensor chip optically.

B1: CFP0015 15L 94F (antibody, V domains shown)
VH: QVQLLESGGGLVQPGGSLRLSCAASGFTFSSYAMSWVRQAPGKGLEWVSAISGSGGSTYYADSVKGRFTISRDNSKNTLYLQMNSLRAEDTAVYYCARGDQIWYDQWYYFDMWGQGTLVTVSS
VL: DIQMTQSPSSLSASVGDRVTITCRASQSIEDDLAWYQQKPGKAPKLLIYEASNLQSGVPSRFSGSGSGTDFTLTISSLQPEDFATYYCQQYDSFPLTFGQGTKVEIK
Consider B1, for which the “% binding (parent = 100)” value is 10.6%.

B2: CFP0011 (antibody, V domains shown)
VH: QVQLVQSGAEVKKPGSSVKVSCKASGGTFSSYAISWVRQAPGQGLEWMGGIIPIFGTANYAQKFQGRVTITADESTSTAYMELSSLRSEDTAVYYCARDMSEFLGWSNYYSYPMDVWGQGTTVTVSS
VL: DIQMTQSPSSLSASVGDRVTITCRASQSIEDDLAWYQQKPGKAPKLLIYHASSLQSGVPSRFSGSGSGTDFTLTISSLQPEDFATYYCQQSDNSPYTFGQGTKVEIK
notes: IgG format
As for B2, the “% binding (parent = 100)” value worked out at 100%.

B3: CFP0015 15L 96W (antibody, V domains shown)
VH: QVQLLESGGGLVQPGGSLRLSCAASGFTFSSYAMSWVRQAPGKGLEWVSAISGSGGSTYYADSVKGRFTISRDNSKNTLYLQMNSLRAEDTAVYYCARGDQIWYDQWYYFDMWGQGTLVTVSS
VL: DIQMTQSPSSLSASVGDRVTITCRASQSIEDDLAWYQQKPGKAPKLLIYEASNLQSGVPSRFSGSGSGTDFTLTISSLQPEDFATYYCQQYDSSPWTFGQGTKVEIK
For the molecule B3, the “% binding (parent = 100)” value was 3.6%.

B4: CFP0015 15L 94T (antibody, V domains shown)
VH: QVQLLESGGGLVQPGGSLRLSCAASGFTFSSYAMSWVRQAPGKGLEWVSAISGSGGSTYYADSVKGRFTISRDNSKNTLYLQMNSLRAEDTAVYYCARGDQIWYDQWYYFDMWGQGTLVTVSS
VL: DIQMTQSPSSLSASVGDRVTITCRASQSIEDDLAWYQQKPGKAPKLLIYEASNLQSGVPSRFSGSGSGTDFTLTISSLQPEDFATYYCQQYDSTPLTFGQGTKVEIK
In the case of B4, the “% binding (parent = 100)” value came out at 53.1%.

B5: CFP0011 11L 30A (antibody, V domains shown)
VH: QVQLVQSGAEVKKPGSSVKVSCKASGGTFSSYAISWVRQAPGQGLEWMGGIIPIFGTANYAQKFQGRVTITADESTSTAYMELSSLRSEDTAVYYCARDMSEFLGWSNYYSYPMDVWGQGTTVTVSS
VL: DIQMTQSPSSLSASVGDRVTITCRASQSIADDLAWYQQKPGKAPKLLIYHASSLQSGVPSRFSGSGSGTDFTLTISSLQPEDFATYYCQQSDNSPYTFGQGTKVEIK
Turning to B5, the “% binding (parent = 100)” value was 100%.

B6: CFP0015 15L 96H (antibody, V domains shown)
VH: QVQLLESGGGLVQPGGSLRLSCAASGFTFSSYAMSWVRQAPGKGLEWVSAISGSGGSTYYADSVKGRFTISRDNSKNTLYLQMNSLRAEDTAVYYCARGDQIWYDQWYYFDMWGQGTLVTVSS
VL: DIQMTQSPSSLSASVGDRVTITCRASQSIEDDLAWYQQKPGKAPKLLIYEASNLQSGVPSRFSGSGSGTDFTLTISSLQPEDFATYYCQQYDSSPHTFGQGTKVEIK
As for B6, the “% binding (parent = 100)” value was 50.7%.

B7: CFP0015 15L 96P (antibody, V domains shown)
VH: QVQLLESGGGLVQPGGSLRLSCAASGFTFSSYAMSWVRQAPGKGLEWVSAISGSGGSTYYADSVKGRFTISRDNSKNTLYLQMNSLRAEDTAVYYCARGDQIWYDQWYYFDMWGQGTLVTVSS
VL: DIQMTQSPSSLSASVGDRVTITCRASQSIEDDLAWYQQKPGKAPKLLIYEASNLQSGVPSRFSGSGSGTDFTLTISSLQPEDFATYYCQQYDSSPPTFGQGTKVEIK
As for B7, the “% binding (parent = 100)” value was 49%.

B8: CFP0015 15L 94W (antibody, V domains shown)
VH: QVQLLESGGGLVQPGGSLRLSCAASGFTFSSYAMSWVRQAPGKGLEWVSAISGSGGSTYYADSVKGRFTISRDNSKNTLYLQMNSLRAEDTAVYYCARGDQIWYDQWYYFDMWGQGTLVTVSS
VL: DIQMTQSPSSLSASVGDRVTITCRASQSIEDDLAWYQQKPGKAPKLLIYEASNLQSGVPSRFSGSGSGTDFTLTISSLQPEDFATYYCQQYDSWPLTFGQGTKVEIK
Take B8: the “% binding (parent = 100)” value stood at 4.5%.

B9: CFP0011 11L 30D (antibody, V domains shown)
VH: QVQLVQSGAEVKKPGSSVKVSCKASGGTFSSYAISWVRQAPGQGLEWMGGIIPIFGTANYAQKFQGRVTITADESTSTAYMELSSLRSEDTAVYYCARDMSEFLGWSNYYSYPMDVWGQGTTVTVSS
VL: DIQMTQSPSSLSASVGDRVTITCRASQSIDDDLAWYQQKPGKAPKLLIYHASSLQSGVPSRFSGSGSGTDFTLTISSLQPEDFATYYCQQSDNSPYTFGQGTKVEIK
With B9, the “% binding (parent = 100)” value amounted to 71.4%.

B10: CFP0015 15L 96Y (antibody, V domains shown)
VH: QVQLLESGGGLVQPGGSLRLSCAASGFTFSSYAMSWVRQAPGKGLEWVSAISGSGGSTYYADSVKGRFTISRDNSKNTLYLQMNSLRAEDTAVYYCARGDQIWYDQWYYFDMWGQGTLVTVSS
VL: DIQMTQSPSSLSASVGDRVTITCRASQSIEDDLAWYQQKPGKAPKLLIYEASNLQSGVPSRFSGSGSGTDFTLTISSLQPEDFATYYCQQYDSSPYTFGQGTKVEIK
In the case of B10, the “% binding (parent = 100)” value is 7.5%.

B11: CFP0015 15L 96I (antibody, V domains shown)
VH: QVQLLESGGGLVQPGGSLRLSCAASGFTFSSYAMSWVRQAPGKGLEWVSAISGSGGSTYYADSVKGRFTISRDNSKNTLYLQMNSLRAEDTAVYYCARGDQIWYDQWYYFDMWGQGTLVTVSS
VL: DIQMTQSPSSLSASVGDRVTITCRASQSIEDDLAWYQQKPGKAPKLLIYEASNLQSGVPSRFSGSGSGTDFTLTISSLQPEDFATYYCQQYDSSPITFGQGTKVEIK
On to B11, for which the “% binding (parent = 100)” value turned out to be 103%.

B12: CFP0015 15L 96F (antibody, V domains shown)
VH: QVQLLESGGGLVQPGGSLRLSCAASGFTFSSYAMSWVRQAPGKGLEWVSAISGSGGSTYYADSVKGRFTISRDNSKNTLYLQMNSLRAEDTAVYYCARGDQIWYDQWYYFDMWGQGTLVTVSS
VL: DIQMTQSPSSLSASVGDRVTITCRASQSIEDDLAWYQQKPGKAPKLLIYEASNLQSGVPSRFSGSGSGTDFTLTISSLQPEDFATYYCQQYDSSPFTFGQGTKVEIK
B12: the “% binding (parent = 100)” value was 11.8%.

B13: CFP0015 15L 94Y (antibody, V domains shown)
VH: QVQLLESGGGLVQPGGSLRLSCAASGFTFSSYAMSWVRQAPGKGLEWVSAISGSGGSTYYADSVKGRFTISRDNSKNTLYLQMNSLRAEDTAVYYCARGDQIWYDQWYYFDMWGQGTLVTVSS
VL: DIQMTQSPSSLSASVGDRVTITCRASQSIEDDLAWYQQKPGKAPKLLIYEASNLQSGVPSRFSGSGSGTDFTLTISSLQPEDFATYYCQQYDSYPLTFGQGTKVEIK
Take B13: the “% binding (parent = 100)” value turned out to be 46.1%.

B14: CFP0011 11L 30S (antibody, V domains shown)
VH: QVQLVQSGAEVKKPGSSVKVSCKASGGTFSSYAISWVRQAPGQGLEWMGGIIPIFGTANYAQKFQGRVTITADESTSTAYMELSSLRSEDTAVYYCARDMSEFLGWSNYYSYPMDVWGQGTTVTVSS
VL: DIQMTQSPSSLSASVGDRVTITCRASQSISDDLAWYQQKPGKAPKLLIYHASSLQSGVPSRFSGSGSGTDFTLTISSLQPEDFATYYCQQSDNSPYTFGQGTKVEIK
Consider B14, for which the “% binding (parent = 100)” value came to 44.5%.

B15: CFP0011 11L 30H (antibody, V domains shown)
VH: QVQLVQSGAEVKKPGSSVKVSCKASGGTFSSYAISWVRQAPGQGLEWMGGIIPIFGTANYAQKFQGRVTITADESTSTAYMELSSLRSEDTAVYYCARDMSEFLGWSNYYSYPMDVWGQGTTVTVSS
VL: DIQMTQSPSSLSASVGDRVTITCRASQSIHDDLAWYQQKPGKAPKLLIYHASSLQSGVPSRFSGSGSGTDFTLTISSLQPEDFATYYCQQSDNSPYTFGQGTKVEIK
For the molecule B15, the “% binding (parent = 100)” value turned out to be 13.6%.
